Measured values as given in PMC10396963, “Fibril formation and ordering of disordered FUS LC driven by hydrophobic interactions” (Nature Chemistry, 2023).

Biological target: the molecule itself
Assay: atomic force microscopy; film formed from 1.5 uM FUS LC at the air/PBS interface (pH 7.4), 5 h, deposited on a Si wafer and dried; 20 ± 1 °C

B1: FUS low-complexity domain (FUS LC, 1–163 amino acids) (domain or fragment, human, UniProt P35637 1-163, looked up)
chain: MASNDYTQQATQSYGAYPTQPGQGYSQQSSQPYGQQSYSGYSQSTDTSGYGQSSYSSYGQSQNTGYGTQSTPQGYGSTGGYGSSQSSQSSYGQQSSYPGYGQQPAPSSTSGSYGSSSQSSSYGQPQSGSYSQQPSYGGQQQSYGQQQSYNPPQGYGQQNQYNS
notes: Human FUS (fused in sarcoma), N-terminal QGSY-rich low-complexity domain, amino-acid residues 1-163; For FRAP 5% of the protein carried Cy3 (NHS ester); the AFM and BAM samples were unlabelled; also called fused in sarcoma low-complexity domain; wild-type FUS LC; source: E. coli, purified (solubilised in 8 M urea, Ni-NTA, cleaved with tobacco etch virus protease, exchanged to CAPS pH 11)
binding result: binds
